According to US20130116182A1, “Factor VIII B Cell Epitope Variants Having Reduced Immunogenicity” (priority 2009, published 2013):

Key:
[1] = biological target: BO2C11 Fab fragment; assay: SPR, BO2C11 Fab on chip, 25 C, 1:1 model
[2] = tested on: CD4+ T cells; assay: Staining with peptide-loaded DR0101 tetramers (tetramer guided epitope mapping); type: cell-based, human; settings: for Positive (individual peptide loaded tetramer staining): DR0101 tetramers, severe HA inhibitor subject 56A, day 18
From the text: T-cell clones were obtained from blood samples from both brothers by staining CD4+ cells with fluorescent DR0101 tetramers that were loaded with peptide FVIII2194-2213, followed by single-cell sorting and expansion. Clones were expanded by stimulation with irradiated peripheral blood mononuclear cells (PBMCs) from an HLA-mismatched individual plus phytohemagglutinin (Remel, Lenexa, Kans.) in the presence of human IL-2 (Hemagen Diagnostics, Inc., Columbia, Md.). Clonality was confirmed by tetramer staining, multiplex PCR and sequencing of the VDJ region in the PCR products.
(§1) a. Added 1.5 μl PE-labeled tetramers (final concentration 10 μg/ml. b. Mixed by shaking the rack containing the FACS tubes. c. Incubated the cells with tetramer for 1 hr in the 37 C 5% CO2 incubator.
(§2) a. Incubated tubes in the refrigerator for >5 min. b. Made an antibody cocktail consisting of 3.75 μl anti-CD4-APC, 3.75 μl anti-CD3-PerCP, 3.75 μl anti-CD25-FITC per sample. 3.75 ul×50=187.5 ul. c. Added 3.75 μl control antibodies to 75 μl control cells (1 —unstained; 2—anti-CD4-FITC; 3—anti-CD4-PE; 4—anti-CD3-PerCP; 5—anti-CD4-APC). d. Added 11.25 μl antibody cocktail to each sample. e. Incubated all samples at 4 C (put in the refrigerator) for 20 min in the dark.
(§3) a. Added 2 ml cold FACS wash buffer to each tube. b. Centrifuged at 1200 rpm, 10 min, 4 C, low brake in the Beckman Coulter Allegra 6KR centrifuge. c. Decanted the supernatant. d. Resuspended in 200 μl FACS wash buffer. e. Stored tubes in a covered ice container for FACS analysis.
(§4) a. Added 1.5 μl PE-labeled tetramers (final concentration 10 μg/ml). b. Mixed by shaking the rack containing the FACS tubes. c. Incubated the cells with tetramer for 1 hr in the 37 C 5% CO2 incubator.
as §2, with “ul×55=206.25 ul (For the CD25-FITC Ab, I opened a new vial (Lot #E016414)—taking 100 ul from this lot.)” for “ul×50=187.5 ul.”
(§5) a. Added 2 ml cold FACS wash buffer to each tube. b. Centrifuged at 1200 rpm, 10 min, 4 C, low brake in the Beckman Coulter Allegra 6KR centrifuge. c. Decanted the supernatant. d. Resuspended in 250 μl FACS wash buffer. e. Stored tubes in a covered ice container for FACS analysis.

[3] = tested on: CD4+ T cells; assay: Staining with peptide-loaded DR1001 tetramers (tetramer guided epitope mapping); type: cell-based, human; settings: for Positive (individual peptide loaded tetramer staining): DR1001 tetramers, severe HA inhibitor subject 56A, day 18
Method: as §1, §2, §3, §4
as §2, with “ul×55=206.25 ul (For the CD25-FITC Ab, I opened a new vial (Lot #E016414)—taking 100 ul from this lot.)” for “ul×50=187.5 ul.”
as §5

Substance | Kd [1] [pM] | koff [1] [s⁻¹] | kon [1] [M⁻¹ s⁻¹] | Positive (individual peptide loaded tetramer staining) [2] | Positive (individual peptide loaded tetramer staining) [3] | tetramer staining ([2]; loaded on DR0101, subject 56A) | tetramer staining ([3]; loaded on DR1001, subject 56A)
FVIII C2 domain protein K2227Q (from UniProt P00451 2189-2351) | 2.9 | 2e-05 | 6.8e+06 |  |  |  | 
FVIII C2 domain protein K2227A (from UniProt P00451 2189-2351) | 3.4 | 6.4e-05 | 1.9e+07 |  |  |  | 
KFSSLYISQFIIMYSLDGKK [Mutant C1-14] |  |  |  | no | no |  | 
KVFQGNQDSFTPVVNSLDPP [Mutant C2-15] |  |  |  |  | no |  | 
LAPMIIHGIKTQGARQKFSS [Mutant C1-12] |  |  |  | no | no |  | 
FVIII C2 domain protein E2327A (from UniProt P00451 2189-2351) | 2.6 | 5.4e-05 | 2.1e+07 |  |  |  | 
FVIII C2 domain protein K2207A (from UniProt P00451 2189-2351) | 13 | 5.9e-05 | 4.6e+06 |  |  |  | 
FVIII C2 domain protein R2304H (from UniProt P00451 2189-2351) | 9.2 | 9.2e-05 | 1e+07 |  |  |  | 
FVIII C2 domain protein T2202A (from UniProt P00451 2189-2351) | 5.8 | 3.5e-05 | 6e+06 |  |  |  | 
SQDGHQWTLFFQNGKVKVFQ [Mutant C2-13] |  |  |  |  | no |  | 
KGVKHLKDFPILPGEIFKYK [Mutant A2-16] |  |  |  | no | no |  | 
FVIII C2 domain protein E2181A (from UniProt P00451 2189-2351) | 8.6 | 0.00019 | 2.2e+07 |  |  |  | 
FVIII C2 domain protein L2273A (from UniProt P00451 2189-2351) | 15 | 0.00017 | 1.1e+07 |  |  |  | 
FVIII C2 domain protein N2225A (from UniProt P00451 2189-2351) | 2.4 | 3.9e-05 | 1.6e+07 |  |  |  | 
LFFQNGKVKVFQGNQDSFTP [Mutant C2-14] |  |  |  |  | no |  | 
QFIIMYSLDGKKWQTYRGNS [Mutant C1-15] |  |  |  | no | no |  | 
FVIII C2 domain protein K2249A (from UniProt P00451 2189-2351) | 6.1 | 3.7e-05 | 6.1e+06 |  |  |  | 
FVIII C2 domain protein A2201P (from UniProt P00451 2189-2351) | 19 | 0.00016 | 8.4e+06 |  |  |  | 
FVIII C2 domain protein T2253A (from UniProt P00451 2189-2351) | 9.8 | 5.2e-05 | 5.3e+06 |  |  |  | 
FVIII C2 domain protein Q2270A (from UniProt P00451 2189-2351) | 1.5 | 0.00018 | 1.2e+08 |  |  |  | 
FVIII C2 domain protein H2315A (from UniProt P00451 2189-2351) | 4.9 | 7.3e-05 | 1.5e+07 |  |  |  | 
FVIII C2 domain protein K2279A (from UniProt P00451 2189-2351) | 26 | 0.00019 | 7.2e+06 |  |  |  | 
DPRCLTRYYSSFVNMERDLA [Mutant A2-20] |  |  |  | no | no |  | 
FVIII C2 domain protein P2300L (from UniProt P00451 2189-2351) | 5.3 | 9.5e-05 | 1.8e+07 |  |  |  | 
FVIII C2 domain protein H2309A (from UniProt P00451 2189-2351) | 1.9 | 2.9e-05 | 1.5e+07 |  |  |  | 

Substance | Kd [1] [pM] | koff [1] [s⁻¹] | kon [1] [M⁻¹ s⁻¹] | Positive (individual peptide loaded tetramer staining) [2] | Positive (individual peptide loaded tetramer staining) [3] | tetramer staining ([2]; loaded on DR0101, subject 56A) | tetramer staining ([3]; loaded on DR1001, subject 56A)
SDAQITASSYFTNMFATWSP [Mutant C2-3B] |  |  |  | weak |  |  | 
FVIII C2 domain protein H2269A (from UniProt P00451 2189-2351) | 7.7 | 0.00017 | 2.2e+07 |  |  |  | 
FVIII C2 domain protein Q2222A (from UniProt P00451 2189-2351) | 5.3 | 3.9e-05 | 7.4e+06 |  |  |  | 
IKTQGARQKFSSLYISQFII [Mutant C1-13] |  |  |  | no | no |  | 
LGMESKAISDAQITASSYFT [Mutant C2-2] |  |  |  | no |  |  | 
FVIII C2 domain protein Q2311A (from UniProt P00451 2189-2351) | 3 | 6.8e-05 | 2.3e+07 |  |  |  | 
FVIII C2 domain protein R2307Q (from UniProt P00451 2189-2351) | 4.7 | 9e-05 | 1.9e+07 |  |  |  | 
FVIII C2 domain protein N2277A (from UniProt P00451 2189-2351) | 5 | 6e-05 | 1.2e+07 |  |  |  | 
FVIII C2 domain protein W2313Y (from UniProt P00451 2189-2351) | 11 | 8.7e-05 | 8.2e+06 |  |  |  | 
VEDGPTKSDPRCLTRYYSSF [Mutant A2-19] |  |  |  | no | no |  | 
FVIII C2 domain protein T2272A (from UniProt P00451 2189-2351) | 4.2 | 5.4e-05 | 1.3e+07 |  |  |  | 
FVIII C2 domain protein S2173I (from UniProt P00451 2189-2351) | 7.3 | 0.00011 | 1.5e+07 |  |  |  | 
FVIII C2 domain protein Q2213A (from UniProt P00451 2189-2351) | 4.4 | 6.1e-05 | 1.4e+07 |  |  |  | 
KEFLISSSQDGHQWTLFFQN [Mutant C2-12] |  |  |  |  | no |  | 
FVIII C2 domain protein L2212A (from UniProt P00451 2189-2351) | 1.9 | 4.4e-05 | 2.3e+07 |  |  |  | 
FVIII C2 domain protein N2224A (from UniProt P00451 2189-2351) | 2.7 | 8.6e-05 | 3.2e+07 |  |  |  | 
SLLTSMYVKEFLISSSQDGH [Mutant C2-11] |  |  |  |  | no |  | 
FVIII C2 domain protein H2211A (from UniProt P00451 2189-2351) | 5.4 | 3.8e-05 | 7.1e+06 |  |  |  | 
DLNSCSMPLGMESKAISDAQ [Mutant C2-1] |  |  |  | no |  |  | 
FPILPGEIFKYKWTVTVEDG [Mutant A2-17] |  |  |  | no | no |  | 
FSWIKVDLLAPMIIHGIKTQ [Mutant C1-11] |  |  |  | no | no |  | 
FVIII C2 domain protein L2302A (from UniProt P00451 2189-2351) | 2.4 | 5.7e-05 | 2.4e+07 |  |  |  | 
IFKYKWTVTVEDGPTKSDPR [Mutant A2-18] |  |  |  | yes | yes | Very strong staining | Very strong staining
FVIII C2 domain protein Q2316A (from UniProt P00451 2189-2351) | 25 | 0.00032 | 1.3e+07 |  |  |  | 
FVIII C2 domain protein V2223M (from UniProt P00451 2189-2351) | 6.3 | 3.6e-05 | 5.7e+06 |  |  |  | 
